This note sets out measurements from publication PMC9927002 (Frontiers in Immunology, 2023).

To fix the notation:
B1: N5 (antibody, V domains shown)
VH: QVQLVQSGAEVKKPGSSVKVSCKASGGTFSSYAIGWVRQAPGQGLEWMGAIIPIFGTTIFAQKFQGRVTITADESTTTAYMELSSLRSDDTAVYYCARGGGGVERGVILTRWFDPWGQGTLVTVSS
VL: QSVLTQPPSVSAAPGQKVTLSCSGSSSNIGNNHVSWYQQLPGTAPKLLIYDNNKRPSGIPDRFSGSKSGTSATLGITGLQTGDEADYYCGTWDNSLSAGVFGGGTKLTVV
notes: also called N5 hmAb
B2: N83 (antibody, V domains shown)
VH: QVQLQESGPRLVKSSETLSLTCTVSGGSISSGSYYWNWIRQPAGKGLEWIGRVYISGVTSYNPSLKSRVTISLDISKNQFSLQLTSVTAADSAVYYCARGGMAVGAPLYYYFYGMDVWGQGTTVTVSS
VL: DVVMTQSPLSLPVTPGEPASISCRSSQSLLHSNGYNYVDWYLQKPGQSPQLMIYLGSNRASGVPDRFSGSGSGTHFTLKISRVEAEDVGVYYCMQALQTLSITFGQGTRLEIK
notes: also called N83 hmAb
B3: N31 (antibody, V domains shown)
VH: QMQLVQSGAEVKKPGSSVKVSCKASGGTFSSYGISWVRQAPGQGLEWMGGIIPILGTANYAQRFQGRIALTADESTSTAYMEVSSLRSEDTAVYYCARGMWSNPPGYCCSYMDVWGKGTTVTVSS
VL: EIVLTQSPATLSVSPGERVTLACRASQSLRSKLAWYQQKPGQAPRLLIYDASTRATGFPARFSGSGSGTEFTLTISSLQSEDFAVYYCQQYSNWPRTFGQGTKLEIK
notes: also called N31 hmAb
B4: N3 (antibody, V domains shown)
VH: QMQLVQSGAEVKRPGSSVKVSCKASGGTFSVYAISWVRQAPGQGLEWMGGIIPIFGTANYAQKFQGRVTLTADESTSTAYMELSSLSSEDTAVYYCARGGYCSGANCPKWGEWSHSYNYMDVWGKGTTVTVSS
VL: not shown
notes: also called N3 hmAb
B5: 3B7 (antibody, V domains shown)
VH: QMQLVQSGAEVKKPGASVRVSCKVSGYSLTELPMHWVRQAPGKGLEWVGSFDPQDAETTYAQRFQGRVAMTEDTSTDTAYMELSSLRSEDTAVYYCATPAPTIVGVVIYALHIWGQGTMVTVSS
VL: EIVLTQSPGTLSLSPGERATLSCRASQRVSDNSLAWYQQKPGQAPSLLIFAASIRAPGIPDRISGTGSGTDFTLTINRLEPEDFVVYFCLQYTTSPPLTFGGGTKLEIK
notes: also called 3B7 hmAb

The first experiment deals with T1, full-length N protein of SARS-CoV (SARS-CoV, NC_004718.3 (Tor2), UniProt P59595).
T1 construct: also called SARS-CoV N; source: 293T cells, transfected (pcDNA3.1), in culture supernatant; not shown: D7-tag, C-terminal, kept
As to the kind of experiment: ELISA. The following applies: one partner purified. (In an ELISA, binding on a coated surface is turned into a signal by an enzyme label.)
Consider B1, for which the binding result was “binds”.

As to B2, the binding result is “binds”.

For the molecule B3, the binding result is reported as “binds”.

B4: the binding result is “binds”.

Turning to B5, the binding result was “binds”.

In a further experiment the target is T2, full-length N protein of HKU1 (HCoV-HKU1 isolate N1, NC_006577.2, UniProt Q5MQC6).
T2 construct: also called HKU1 N; source: 293T cells, transfected (pcDNA3.1), in culture supernatant; not shown: D7-tag, C-terminal, kept
As to the kind of experiment: ELISA. Particulars: one partner purified.
Turning to B1, the binding result was “no binding (tested: 10 µg/ml)”.

For the molecule B2, the binding result is “no binding (tested: 10 µg/ml)”.

With B3, the binding result was “no binding (tested: 10 µg/ml)”.

As to B4, the binding result is given as “no binding (tested: 10 µg/ml)”.

B5: the binding result is reported as “no binding (tested: 10 µg/ml)”.

The next experiment deals with T3, full-length SARS-CoV-2 nucleocapsid (N) protein (SARS-CoV-2, NC_045512.2 (Wuhan-Hu-1), UniProt P0DTC9).
T3 construct: also called SARS-CoV-2 N protein; SARS-CoV-2 N/D7-Tag; not shown: D7-tag, C-terminal, kept
The experiment in a line: BLI. Particulars: one partner purified.
Take B1: the dissociation constant Kd (in general, the concentration at which binding is half-saturated) was less than 0.001 nM; the koff (usually the first-order rate constant of dissociation) was less than 1e-07 s⁻¹; the on-rate constant (kon) (in general, the rate constant with which the complex forms) is 137000 M⁻¹ s⁻¹.

Molecule B2 had a Kd of 1.76 nM, a koff of 0.00113 s⁻¹ and an association rate constant (kon) of 639000 M⁻¹ s⁻¹.

B3: the Kd is less than 0.001 nM, the koff was less than 1e-07 s⁻¹ and the kon worked out at 174000 M⁻¹ s⁻¹.

On to B4, for which the Kd was less than 0.001 nM, the off-rate (koff) is less than 1e-07 s⁻¹ and the kon amounted to 157000 M⁻¹ s⁻¹.

Take B5: the affinity, expressed as Kd, was 1.94 nM; the off-rate constant (koff) was 0.000689 s⁻¹; the kon was 355000 M⁻¹ s⁻¹.
